The values below come from US12012446B2, “Epstein-Barr virus antibodies and uses thereof” (priority 2017, dated 2024).

Bounds are passed on as bounds.

Assay [1] concerns the target T1, purified EBV gp350/220 (recombinant EBV gp350 ectodomain) (Epstein-Barr virus, UniProt P03200).
T1 construct: purified EBV gp350 ectodomain protein (AA 4-863); purchased Immune Technology Corporation
Description: Indirect ELISA on recombinant EBV gp350 ectodomain. It is filed as binding. The conditions noted are these: for ELISA binding to purified EBV gp350/220: purified antibodies 10 μg/ml; for ELISA binding strength to gp350, compared with m72A1 / parental antibody: soluble gp350 0.5 μg/ml. The protocol:
Briefly, immunoplates (Costar 3590; Corning Incorporated) were coated with 50 μl of 0.5 μg/ml recombinant EBV gp350 ectodomain (Immune Technology Corporation) diluted in 1× phosphate buffered saline (PBS, pH 7.4) and incubated overnight at 4° C. After washing three times with 1×PBS containing 0.05% (v/v) Tween 20 (washing buffer), plates were blocked with 100 μl washing buffer containing 2% (w/v) bovine serum albumin (BSA) (blocking buffer) then incubated for 1 h at room temperature and washed as above. 100 μl of hybridoma supernatant or 50 μl of 10 μg/ml purified mAbs was added to each well (in triplicate) and incubated for 2 h at room temperature. […] The plates were washed as described above, followed by incubation with 50 μl of goat anti-mouse IgG HRP-conjugated secondary antibody (1:2,000 diluted in 1×PBS) at room temperature for 1 h. The plates were washed again and 100 μl of chromogenic substrate 2,2′-azino-bis (3-ethylbenzothiazoline-6-sulphonic acid) (ABTS, Life Science Technologies) was added. The reaction was stopped using 100 μl of ABTS peroxidase stop solution containing 5% sodium dodecyl sulfate (SDS) in water. The absorbance was read at an optical density of 405 nm using an ELISA reader (Molecular Devices). All experiments were performed in triplicate and confirmed in three independent experiments.
ELISA binding of anti-gp350 and anti-gH/gL to soluble gp350 and gH/gL proteins was performed. Soluble EBV gp350 and gH/gL proteins were used as the target antigen at 0.5 μg/ml. 1× phosphate buffered saline (PBS) was used as negative (not shown) control. Bound antibodies were detected using HRP-conjugated anti-mouse or anti-human IgG (1:2,000).
On the technique in general: In an ELISA, binding on a coated surface is turned into a signal by an enzyme label.

The subject of assay [2] is EBV-eGFP infection of Raji cells. Kind of assay: EBV neutralization assay in Raji cells. In kind it is cell-based, Epstein-Barr virus. The settings on record: for neutralization of EBV in Raji cells (in words): spin-column purified mAbs, 12.5, 25, 50 and 100 μg/ml. The procedure:
EBV neutralization assay was performed in Raji cells as previously described (47). Briefly, purified individual anti-gp350 mAbs were incubated with purified AGS-EBV-eGFP (titer calculated to infect at least 8% of HEK293 cells seeded in 100 μl of serum-free DMEM) for 2 hours at 37° C. To represent EBV infection of B cells, the pre-incubated anti-gp350 mAbs/AGS-EBV-eGFP were used to infect 5×10^5 Raji cells seeded in a 96-well plate for 2 hours at 37° C. Neutralizing 72A1 and non-neutralizing 2L10 anti-gp350 mAbs served as positive and negative controls, respectively. Infected cells were washed three times with PBS to remove any unbound viruses and antibodies. Washed, infected cells were incubated in 96-well plates at 37° C. for 48 hours post-infection and the number of eGFP+ (infected) cells was determined using flow cytometry. All dilutions were performed in quintuplicate and the assays were repeated three times. Antibody EBV neutralization activity was calculated as: % neutralization=(EBValone−EBVmAb)/(EBValone)×100.
However, this antibody was recently reported to be a mixture of both functional and non-functional antibodies (50). […] The percentage of eGFP+ cells (percent infection) was determined using flow cytometry as described (47). The nAbs 72A1 and E1D1 were used as positive controls, whereas the anti-gp350 non-neutralizing mAb 2L10 and KSHV gH/gL mAb 54A1 were used as negative controls. Because HB4, HB13, HB15, HB16, HB19, HB21, and HB23 were confirmed to be polyclonal based on isotyping and/or sequence data, they were eliminated from further consideration in the neutralization assay. HB18 was not used in neutralization experiments because it was identical to HB8.
The purified eGFP-tagged-EBV was titered in Raji cells to determine percent EBV infection using a range of volumes (50-250 μl) (FIG. 5A). Then initial neutralization of EBV was conducted in Raji cells using purified mAbs at various concentrations (12.5, 25, 50, and 100 μg/ml).
EBV-eGFP+ cells were enumerated using flow cytometry.

Assay [3] deals with T2, EBV gp350 stably expressed on CHO cells (Epstein-Barr virus, UniProt P03200).
T2 construct: stably co-transfected with full-length pCAGGS-gp350/220 and pCI-puro vector; expressed in transfected cells; host or cells: CHO cells
T2 sequence (P03200 whole entry): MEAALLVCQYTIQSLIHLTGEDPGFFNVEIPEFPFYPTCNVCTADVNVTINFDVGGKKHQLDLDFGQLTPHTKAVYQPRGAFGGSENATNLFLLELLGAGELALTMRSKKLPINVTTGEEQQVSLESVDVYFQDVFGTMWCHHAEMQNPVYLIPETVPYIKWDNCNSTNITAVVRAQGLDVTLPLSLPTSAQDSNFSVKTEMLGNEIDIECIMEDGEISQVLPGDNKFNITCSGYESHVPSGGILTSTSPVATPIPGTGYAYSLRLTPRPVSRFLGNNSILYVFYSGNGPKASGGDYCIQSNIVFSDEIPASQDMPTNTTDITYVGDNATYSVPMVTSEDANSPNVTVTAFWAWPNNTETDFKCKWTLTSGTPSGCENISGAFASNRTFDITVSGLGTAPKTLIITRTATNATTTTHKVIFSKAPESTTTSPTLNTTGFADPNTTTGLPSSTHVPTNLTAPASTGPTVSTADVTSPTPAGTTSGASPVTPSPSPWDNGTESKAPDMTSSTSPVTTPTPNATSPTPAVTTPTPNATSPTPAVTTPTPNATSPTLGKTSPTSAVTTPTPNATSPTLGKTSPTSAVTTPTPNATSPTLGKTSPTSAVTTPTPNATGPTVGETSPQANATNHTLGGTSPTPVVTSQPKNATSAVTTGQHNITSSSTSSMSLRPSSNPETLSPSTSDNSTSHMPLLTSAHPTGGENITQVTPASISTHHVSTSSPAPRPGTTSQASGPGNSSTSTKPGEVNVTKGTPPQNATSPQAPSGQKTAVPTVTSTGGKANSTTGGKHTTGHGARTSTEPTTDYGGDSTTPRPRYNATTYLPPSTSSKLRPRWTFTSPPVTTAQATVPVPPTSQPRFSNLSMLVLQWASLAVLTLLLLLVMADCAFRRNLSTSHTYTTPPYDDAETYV
Kind of assay: Epitope mapping by competitive cell binding assay with biotinylated mAbs. The procedure: To evaluate conformation epitope mapping of the selected mAbs, competitive binding assays were conducted using biotinylated mAbs. A one-step antibody biotinylation kit (MACS Miltenyi Biotec) was used to biotinylate the mAbs. Approximately 1×10^5 CHO cells that stably expressed EBV gp350 were incubated for 2 hours with serially diluted ([…]) unlabeled competitor mAbs and non-specific anti-KSHV gH/gL 54A1 mAb. After being washed with PBS, the cells were incubated for 2 hours in the presence of 1 μg/ml biotinylated mAbs. To determine maximum binding, cells in which the biotinylated mAb was added in the absence of unlabeled mAbs were included in the assay. Cells were washed with PBS, followed by incubation for 1 hour with anti-biotin AF488 at a dilution of 1:500. After the final wash in PBS, cells were resuspended in 1% paraformaldehyde and analyzed by flow cytometry as described above. Percentage of inhibition was calculated as: 100−[(% fluorescent cells with competitor mAb/% fluorescent cells without competitor mAb)×100]. The complete prevention of binding of a biotinylated mAb by its unlabeled counterpart was used as a validation of the assay, as previously described (84).
At least seven unique CD21 binding epitopes on EBV gp350 have been predicted (Table 3).

T1 sequence (P03200 4-863): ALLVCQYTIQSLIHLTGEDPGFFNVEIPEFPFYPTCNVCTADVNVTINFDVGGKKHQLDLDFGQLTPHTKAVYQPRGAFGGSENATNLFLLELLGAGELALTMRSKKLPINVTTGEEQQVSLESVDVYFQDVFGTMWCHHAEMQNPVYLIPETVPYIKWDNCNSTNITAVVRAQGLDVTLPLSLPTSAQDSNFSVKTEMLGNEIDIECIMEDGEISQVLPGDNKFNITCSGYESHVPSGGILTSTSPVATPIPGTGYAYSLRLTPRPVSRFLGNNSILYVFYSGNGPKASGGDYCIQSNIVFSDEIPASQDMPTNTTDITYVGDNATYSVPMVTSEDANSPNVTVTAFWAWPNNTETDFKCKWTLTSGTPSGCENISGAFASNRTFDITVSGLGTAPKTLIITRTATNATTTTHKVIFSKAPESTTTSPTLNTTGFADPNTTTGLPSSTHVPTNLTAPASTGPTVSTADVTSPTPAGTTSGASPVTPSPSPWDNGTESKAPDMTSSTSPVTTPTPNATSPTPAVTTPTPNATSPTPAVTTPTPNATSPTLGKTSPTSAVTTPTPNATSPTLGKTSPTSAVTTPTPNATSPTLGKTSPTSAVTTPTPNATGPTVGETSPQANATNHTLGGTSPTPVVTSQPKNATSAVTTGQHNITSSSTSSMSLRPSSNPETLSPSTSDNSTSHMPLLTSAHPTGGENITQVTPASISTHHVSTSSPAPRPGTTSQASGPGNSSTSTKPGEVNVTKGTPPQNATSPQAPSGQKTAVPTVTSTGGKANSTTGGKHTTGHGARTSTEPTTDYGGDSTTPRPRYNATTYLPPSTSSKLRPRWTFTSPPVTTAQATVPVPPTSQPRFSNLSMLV

B1: HB14: murine anti-EBV gp350 mAb, IgG1 κ; SEQ ID NO: 124 / 125 (antibody, V domains shown)
VH: SGAELVRPGASVNLSCKALGYTFTDYEMHWVKQTPVYGLEWIGTIHPRRGGTAYNQRFKGKAALTADKSSSTAYMELSSLTSEDSAVYYCARYGYPWYFDVWGAGTTVTVSS
VL: LSLPVSLGDQASISCRSSQSIVHDNGNTYLEWYLQKPGQSPKLLIYKVSNRFSGVLDKFSGSGSGTDFTLKISRVEAEDLGIYYCFQGSHVPPTFGGGTKLEIK
modifications: heavy chain mAb HB14; light chain mAb HB14
Turning to B1, in assay [1], the “ELISA binding to purified EBV gp350/220” value was “+” and the “ELISA binding strength to gp350, compared with m72A1 / parental antibody” value was “equal to or greater than that of the positive control, m72A1”. Moreover, the “neutralization of EBV in Raji cells (in words)” value (from here on “neutralization of EBV”) in assay [2] is given as “failed to neutralize EBV infection”.

B2: HB8: murine anti-EBV gp350 mAb, IgG1 κ; SEQ ID NO: 114 / 115; HB18 has identical VH and VL (antibody, V domains shown)
VH: PELKKPGETVKISCKASGYSFTNYGMNWVKQAPGKGLKWMGWINTYTGEPTYADDFKGRFAFSLETSASTAFLQINNLKNEDTATYLCARYYYGSVYSAWFAYWGQGTLVTVSAAKTTPPSVYPLAPGSAAQTNSMVTLG
VL: LSLPVSLGDQASISCRSSQSIVHSNGNTYLEWYLQKAGQSPKLLIYKVSNRFSGVPDRFGGSGSGTDFTLKISRVEAEDLGVYYCFQGSHVPYTFGGGTKLEIKRADAAPTV
modifications: heavy chain mAb HB8; light chain mAb HB8
notes: murine anti-EBV gp350 mAb, IgG1 κ; HB18 has identical VH and VL
With B2, the “ELISA binding to purified EBV gp350/220” value in assay [1] is “+”. Besides, the “neutralization of EBV” value in assay [2] is given as “failed to neutralize EBV infection”.

B3: HB10: murine anti-EBV gp350 mAb, IgG1 κ; SEQ ID NO: 118 / 119; non-nAb (protein)
chain 1: LSLPVSLGDQASISCRSSQSIVHSNGNTYLEWYLQKAGQSPKLLIYKVSNRFSGVPDRFGGSGSGTDFTLKISRVEAEDLGVYYCFQGSHVPYTFGGGTKLEIKRADAAPTV
chain 2: SSLSASLGDRVTISCRASQDIGNYLNWYQQKPDGTVKLLIYYTSRLHSGVPSRFSGSGSGTDYSLTISNLEEEDIATYFCQQGNTLPPTFGGGTKLEIKRADAAPTV
modifications: heavy chain mAb HB10; light chain mAb HB10
notes: murine anti-EBV gp350 mAb, IgG1 κ; non-nAb
Turning to B3, the “ELISA binding to purified EBV gp350/220” value in assay [1] was “+”. Besides, in assay [2] (protein G and size-exclusion chromatography-purified mAbs, highest concentration 100 μg/ml), the “blocking of EBV infection of Raji cells (nAb activity)” value is less than 50%. Also, the “neutralization of EBV” value in assay [2] was “failed to neutralize EBV infection”. The “% inhibition of biotinylated nAbs (biotinylated m72A1)” value in assay [3] (unlabeled mAb 67.5 μg/ml, biotinylated m72A1 1 μg/ml) is 13%; in assay [3] (unlabeled mAb 125 μg/ml, biotinylated m72A1 1 μg/ml), 16%; in assay [3] (unlabeled mAb 250 μg/ml, biotinylated m72A1 1 μg/ml) it was 14%; in assay [3] (unlabeled mAb 500 μg/ml, biotinylated m72A1 1 μg/ml) it was 12%.

B4: HB6: murine anti-EBV gp350 mAb, IgG1 κ; SEQ ID NO: 110 / 111 (antibody, V domains shown)
VH: PELRKPGETVKISCKASGYTFTDYSMHWVKQTPGKGLKWMGWINTRTGEPRYADDFKGRFAFSLETSASTAYLQINNLKNEDTATYFCAPYGYALDYWGQGTSVTVSSAKTTPPSVYPLAPGSAAQTNSMVTLG
VL: AILSASPGEKVTMTCRATSSVNYMHWYQQKPGSSPKPWIYATSNLASGVPARFSGSGSGTSYSLTISRVEAEDAATYYCQQWSSNPPTFGAGTKLELKRADAAPTV
modifications: heavy chain mAb HB6; light chain mAb HB6
On to B4, for which the “ELISA binding to purified EBV gp350/220” value in assay [1] is reported as “+”. Besides, in assay [2], the “neutralization of EBV” value is reported as “failed to neutralize EBV infection”.

B5: HB7: murine anti-EBV gp350 mAb, IgG1 κ; SEQ ID NO: 112 / 113 (antibody, V domains shown)
VH: AELVRPGASVKLSCKALGYTFTDYEMHWVKQTPVHGLEWIGTISPGRSGTAYNQKFKGKATLTADKSSRTAYMELNSLTSEDSAVYYCSRYGHPSYLDVWGAGTTVTVSSAKTTPPSVYPLAPGSAAQTNSMVTLG
VL: KFMSTSVGDRVNITCKASQSVGNAVAWFQQKPGQSPKLLIYSASNRYTGIPDRFTGSGSGTDFTLTCNNMQSEDLADYFCQQYSSYPLTFGAGTKLELKRADAAPTV
modifications: heavy chain mAb HB7; light chain mAb HB7
As for B5, in assay [1], the “ELISA binding to purified EBV gp350/220” value is given as “+” and the “ELISA binding strength to gp350, compared with m72A1 / parental antibody” value was “equal to or greater than that of the positive control, m72A1”. Also, in assay [2], the “neutralization of EBV” value is listed as “failed to neutralize EBV infection”.

B6: HB1: murine anti-EBV gp350 mAb, IgG1 κ; heavy chain SEQ ID NO: 102, light chain SEQ ID NO: 103; neutralizing (antibody, V domains shown)
VH: PGLVAPSQSLSITCTVSGFLLTTYGVHWVRQPPGKGLEWLGVIWAGGSTNYNSALMSRLSINKDISKSQVFLKMNSLQTDDTAMYYCTRDRGYGYLYAMDYWGQGTSVTVSSAKTTPPSVYPLAPGSAAQTNSMVTLG
VL: KFMSTSVGDRVSVTCKASQNVGTNVAWYQQKPGQSPKALIYSTSSRYTGVPDRFAGSGSGTDYTLTISNVQSEDLAEYFCQQYNTYPYTFGGGTRLDIKRADAAPTV
modifications: heavy chain mAb HB1; light chain mAb HB1
notes: murine anti-EBV gp350 mAb, IgG1 κ; neutralizing
Consider B6, for which the “ELISA binding to purified EBV gp350/220” value in assay [1] was “+”. Moreover, in assay [2] (protein G and size-exclusion chromatography-purified mAbs, 12.5-100 μg/ml), the “blocking of EBV infection of Raji cells (in words)” value is on record as “blocked EBV infection in a dose-dependent manner”. In addition, in assay [2], the “neutralization of EBV” value was “dose-dependent neutralization”. For the same molecule, the “competitive binding versus m72A1 and h72A1 (in words)” value in assay [3] (biotinylated antibodies) was “bound targets that overlapped with those of both m72A1 and h72A1”. Moreover, in assay [3] (biotinylated m72A1 1 μg/ml, unlabeled mAbs 500-67.5 μg/ml), the “antigen binding competition with biotinylated m72A1 (in words)” value is on record as “Antigen binding competition was observed”.
